In article PMC4632850 (Protein Science : A Publication of the Protein Society, 2015):

Key:
[1] = molecular target: the molecule itself
SEC = molecular target: the molecule itself; assay: SEC
[2] = molecular target: T1, phosphorylated neutral trehalase Nth1 (pNth1) (Saccharomyces cerevisiae, UniProt P32356 1-751, phosphorylated (sites not given)); assay: SAXS
T1 sequence: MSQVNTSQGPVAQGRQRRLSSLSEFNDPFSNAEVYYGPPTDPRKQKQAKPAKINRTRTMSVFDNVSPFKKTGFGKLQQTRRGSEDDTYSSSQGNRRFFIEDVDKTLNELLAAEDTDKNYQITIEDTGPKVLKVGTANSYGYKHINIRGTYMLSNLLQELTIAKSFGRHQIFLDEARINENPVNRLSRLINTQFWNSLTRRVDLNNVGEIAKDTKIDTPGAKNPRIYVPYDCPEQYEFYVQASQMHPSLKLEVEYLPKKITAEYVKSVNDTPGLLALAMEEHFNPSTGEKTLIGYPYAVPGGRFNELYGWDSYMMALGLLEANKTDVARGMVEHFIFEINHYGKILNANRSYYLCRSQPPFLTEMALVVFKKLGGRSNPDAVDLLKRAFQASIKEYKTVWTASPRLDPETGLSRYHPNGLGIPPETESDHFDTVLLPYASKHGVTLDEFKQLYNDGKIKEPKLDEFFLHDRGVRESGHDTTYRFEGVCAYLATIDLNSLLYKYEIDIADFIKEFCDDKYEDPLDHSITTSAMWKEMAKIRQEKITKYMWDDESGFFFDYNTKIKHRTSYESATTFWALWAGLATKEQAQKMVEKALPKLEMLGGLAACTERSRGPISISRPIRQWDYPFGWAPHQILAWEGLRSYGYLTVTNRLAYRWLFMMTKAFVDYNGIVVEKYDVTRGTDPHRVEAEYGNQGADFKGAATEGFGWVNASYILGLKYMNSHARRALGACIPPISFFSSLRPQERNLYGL

B1: DNA-binding domain of human FoxP1 (domain or fragment)
chain: AEVRPPFTYASLIRQAILESPEKQLTLNEIYNWFTRMFAYFRRNAATWKNAVRHNLSLHKCFVRVENVKGAVWTVDEVEFQKRRPQKISGNPSL
Question: For B1, which “dH (dimer dissociation, van't Hoff)” value [1] is on record?
Answer: The value was 23.1 kcal•mol‐1.

B2: human HtrA3 lacking the N-terminal domain (enzyme)
chain: GLHQLSSPRYKFNFIADVVEKIAPAVVHIELFLRHPLFGRNVPLSSGSGFIMSEAGLIITNAHVVSSNSAAPGRQQLKVQLQNGDSYEATIKDIDKKSDIATIKIHPKKKLPVLLLGHSADLRPGEFVVAIGSPFALQNTVTTGIVSTAQREGRELGLRDSDMDYIQTDAIINYGNSGGPLVNLDGEVIGINTLKVTAGISFAIPSDRITRFLTEFQDKQIKDWKKRFIGIRMRTITPSLVDELKASNPDFPEVSSGIYVQEVAPNSPSQRGGIQDGDIIVKVNGRPLVDSSELQEAVLTESPLLLEVRRGNDDLLFSIAPEVVM
Question: How did the “stoichiometry N” value (SEC) turn out when B2 was run?
Answer: Its value is 3.

B3: yeast 14-3-3 protein Bmh1 (natural protein)
chain: MSTSREDSVYLAKLAEQAERYEEMVENMKTVASSGQELSVEERNLLSVAYKNVIGARRASWRIVSSIEQKEESKEKSEHQVELICSYRSKIETELTKISDDILSVLDSHLIPSATTGESKVFYYKMKGDYHRYLAEFSSGDAREKATNASLEAYKTASEIATTELPPTHPIRLGLALNFSVFYYEIQNSPDKACHLAKQAFDDAIAELDTLSEESYKDSTLIMQLLRDNLTLWTSDMSESGQAEDQQQQQQHQQQQPPAAAEGEAPK
Question: Does B3 bind [2]?
Answer: Result: binds
